US20240327530A1 (ICHNOS SCIENCES, published 2024)
Positions count from the first letter of the chain named. Numbers in names are those of the source.

T1: Recombinant cynomolgus monkey IL-1RAP-ECD(S21-E359)-avi-his protein (cynomolgus monkey, UniProt P59822 21-359 (rhesus entry))
T1 construct: also called cyno IL-1RAP-ECD-Avi-His; recombinant cynomolgus monkey IL-1RAP-avi-his protein
T1 sequence: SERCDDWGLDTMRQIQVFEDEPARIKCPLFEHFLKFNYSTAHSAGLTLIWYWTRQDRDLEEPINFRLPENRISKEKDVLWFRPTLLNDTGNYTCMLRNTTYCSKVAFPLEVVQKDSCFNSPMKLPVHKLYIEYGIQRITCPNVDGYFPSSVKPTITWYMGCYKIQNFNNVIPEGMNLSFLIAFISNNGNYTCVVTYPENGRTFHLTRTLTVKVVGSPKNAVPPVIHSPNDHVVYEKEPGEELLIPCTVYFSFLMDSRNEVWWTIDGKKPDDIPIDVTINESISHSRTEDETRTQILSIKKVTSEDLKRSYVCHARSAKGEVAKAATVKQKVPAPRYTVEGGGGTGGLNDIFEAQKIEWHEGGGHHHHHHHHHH

T2: Recombinant mouse IL-1RAP Fc fusion protein (Sino Biologicals, catalog no. 52657-M02H) (mouse, UniProt Q61730 21-350)
T2 construct: Bought; not shown: Fc part of the bought fusion protein
T2 sequence: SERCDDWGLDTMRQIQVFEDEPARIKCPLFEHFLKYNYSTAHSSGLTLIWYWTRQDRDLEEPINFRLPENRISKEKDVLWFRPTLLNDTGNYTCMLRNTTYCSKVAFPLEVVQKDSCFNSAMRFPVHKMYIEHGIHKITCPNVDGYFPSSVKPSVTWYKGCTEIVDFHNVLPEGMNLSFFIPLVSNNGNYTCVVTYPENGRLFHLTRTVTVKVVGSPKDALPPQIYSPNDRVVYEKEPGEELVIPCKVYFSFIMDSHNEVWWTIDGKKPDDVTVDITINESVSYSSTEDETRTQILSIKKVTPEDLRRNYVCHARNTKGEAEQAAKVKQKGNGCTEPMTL

T3: Recombinant human IL-1RAP Fc fusion protein (Acrobiosystems, catalog no. ILP-H5256) (human, UniProt Q9NPH3 21-359, limits assumed)
T3 construct: Bought; not shown: Fc part of the bought fusion protein
T3 sequence: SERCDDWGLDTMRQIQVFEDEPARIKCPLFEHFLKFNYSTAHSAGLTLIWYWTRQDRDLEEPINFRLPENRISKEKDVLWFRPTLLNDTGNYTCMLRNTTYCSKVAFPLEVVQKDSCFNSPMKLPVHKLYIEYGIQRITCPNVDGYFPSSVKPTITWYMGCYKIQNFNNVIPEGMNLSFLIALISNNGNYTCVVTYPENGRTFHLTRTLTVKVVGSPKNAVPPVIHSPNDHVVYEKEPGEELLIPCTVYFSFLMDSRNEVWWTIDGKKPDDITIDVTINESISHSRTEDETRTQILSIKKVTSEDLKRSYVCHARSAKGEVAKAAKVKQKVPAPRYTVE

B1: Anti-IL-1RAP-UCP03-G3-Fab (Fab, V domains shown)
VH: QVQLVQSGAEVKKPGSSVKVSCKASGGPLSGYAFHWVRQAPGQGLEWMGGIIPNFAQTDYAQKFQGRVTITADESTSTAYMELSSLRSEDTAVYYCARFSIYSGWSDVWGQGTLVTVSS
VL: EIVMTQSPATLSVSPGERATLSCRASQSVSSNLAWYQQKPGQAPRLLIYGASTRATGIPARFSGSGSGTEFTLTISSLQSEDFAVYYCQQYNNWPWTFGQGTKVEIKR
B2: Anti-IL-1RAP-UCP03-A3-Fab (Fab, V domains shown)
VH: QVQLVQSGAEVKKPGSSVKVSCKASGGLFNENAIHWVRQAPGQGLEWMGGIIPDVGAAFYAQKFQGRVTITADESTSTAYMELSSLRSEDTAVYYCARGSIYTAWFAVWGQGTLVTVSS
VL: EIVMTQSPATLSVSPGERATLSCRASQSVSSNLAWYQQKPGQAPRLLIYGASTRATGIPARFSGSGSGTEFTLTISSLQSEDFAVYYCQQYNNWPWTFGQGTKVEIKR
B3: Anti-IL-1RAP-UCP03-C1-Fab (Fab, V domains shown)
VH: QVQLVQSGAEVKKPGSSVKVSCKASGGRFSSNAISWVRQAPGQGLEWMGGIIPHFGAVYYAQKFQGRVTITADESTSTAYMELSSLRSEDTAVYYCARGSVYTGWFDNWGQGTLVTVSS
VL: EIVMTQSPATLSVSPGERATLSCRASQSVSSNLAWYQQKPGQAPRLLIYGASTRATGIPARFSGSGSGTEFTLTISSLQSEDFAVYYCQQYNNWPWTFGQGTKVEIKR
B4: Anti-IL-1RAP-UCP03-G4-Fab (Fab, V domains shown)
VH: QVQLVQSGAEVKKPGSSVKVSCKASGGRFSHYVFSWVRQAPGQGLEWMGGIIPYEGKPFYAQKFQGRVTITADESTSTAYMELSSLRSEDTAVYYCARSDYFYYYFDPWGQGTLVTVSS
VL: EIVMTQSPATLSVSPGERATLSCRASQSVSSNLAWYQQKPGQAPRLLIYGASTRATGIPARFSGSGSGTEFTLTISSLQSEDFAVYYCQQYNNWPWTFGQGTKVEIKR
B5: Anti-IL-1RAP-UCP03-B4-Fab (Fab, V domains shown)
VH: QVQLVQSGAEVKKPGSSVKVSCKASGGPFSQHAISWVRQAPGQGLEWMGGIIPFEGVAFYAQKFQGRVTITADESTSTAYMELSSLRSEDTAVYYCARSSSYYSWLDYWGQGTLVTVSS
VL: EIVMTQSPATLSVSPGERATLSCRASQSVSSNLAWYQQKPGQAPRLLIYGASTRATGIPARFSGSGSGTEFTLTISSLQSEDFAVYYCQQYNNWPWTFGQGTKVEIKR
B6: Anti-IL-1RAP-UCP02-G8-Fab (Fab, V domains shown)
VH: QVQLVQSGAEVKKPGSSVKVSCKASGGFFSIYAISWVRQAPGQGLEWMGGIAPAAGIAEYAQKFQGRVTITADESTSTAYMELSSLRSEDTAVYYCARGQSPGRVREEYWYDYWGQGTLVTVSS
VL: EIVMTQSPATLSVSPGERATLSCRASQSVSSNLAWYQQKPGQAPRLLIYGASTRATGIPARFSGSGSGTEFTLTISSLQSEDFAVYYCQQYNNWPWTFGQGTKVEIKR
B7: Anti-IL-1RAP-UCP03-C2-Fab (Fab, V domains shown)
VH: QVQLVQSGAEVKKPGSSVKVSCKASGDPFKRYAIGWVRQAPGQGLEWMGGIIPTTGEAIYAQKFQGRVTITADESTSTAYMELSSLRSEDTAVYYCARHGTTYAAFDHWGQGTLVTVSS
VL: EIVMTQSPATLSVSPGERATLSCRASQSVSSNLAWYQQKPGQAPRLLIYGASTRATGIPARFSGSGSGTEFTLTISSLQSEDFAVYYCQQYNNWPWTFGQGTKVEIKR
B8: Anti-IL-1RAP-UCP02-B11-Fab (Fab, V domains shown)
VH: QVQLVQSGAEVKKPGSSVKVSCKASGGHFSQFAISWVRQAPGQGLEWMGGIAPGLGSTRYAQKFQGRVTITADESTSTAYMELSSLRSEDTAVYYCARDSIYSAWLAYWGQGTLVTVSS
VL: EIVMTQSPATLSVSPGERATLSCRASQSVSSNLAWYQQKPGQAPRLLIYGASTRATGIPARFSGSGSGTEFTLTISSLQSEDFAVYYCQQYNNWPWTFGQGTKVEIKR
B9: Anti-IL-1RAP-UCP03-A2-Fab (Fab, V domains shown)
VH: QVQLVQSGAEVKKPGSSVKVSCKASGGKFNFDVIHWVRQAPGQGLEWMGGIIPDFASTHYAQKFQGRVTITADESTSTAYMELSSLRSEDTAVYYCARVPDYYTGWMAYWGQGTLVTVSS
VL: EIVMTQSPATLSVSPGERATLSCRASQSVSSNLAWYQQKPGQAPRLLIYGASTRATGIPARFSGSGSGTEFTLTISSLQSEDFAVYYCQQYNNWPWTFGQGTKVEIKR
B10: Anti-IL-1RAP-C8-H1A-C4-Fab (Fab, V domains shown)
VH: QVQLVQSGAEVKKPGSSVKVSCKASGGKLNAYAIQWVRQAPGQGLEWMGYIIPLHGQVDYAQKFQGRVTITADESTSTAYMELSSLRSEDTAVYYCARGQTLYDSGRQFDIWGQGTLVTVSS
VL: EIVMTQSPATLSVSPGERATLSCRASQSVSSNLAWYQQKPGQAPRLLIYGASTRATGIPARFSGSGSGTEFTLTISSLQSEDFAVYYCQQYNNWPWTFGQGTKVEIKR
B11: Anti-IL-1RAP-C8-H1B-B8-Fab (Fab, V domains shown)
VH: B10 VH with G27S, K28P, L29A, N30E, A31P
VL: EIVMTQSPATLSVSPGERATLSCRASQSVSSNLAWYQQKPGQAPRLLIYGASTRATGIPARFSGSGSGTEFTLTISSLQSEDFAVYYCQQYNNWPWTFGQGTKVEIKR
notes: also called ISB 880-C8-H1B-B8
B12: Anti-IL-1RAP-C8-H1A-G3-Fab (Fab, V domains shown)
VH: B10 VH with K28P, L29F, N30S, A31D
VL: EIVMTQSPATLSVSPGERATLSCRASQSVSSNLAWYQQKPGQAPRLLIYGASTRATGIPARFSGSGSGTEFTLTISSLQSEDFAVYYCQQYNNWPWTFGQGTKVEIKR
B13: Anti-IL-1RAP-C8-H1A-F1-Fab (Fab, V domains shown)
VH: B10 VH with K28I, L29F, N30S, A31N
VL: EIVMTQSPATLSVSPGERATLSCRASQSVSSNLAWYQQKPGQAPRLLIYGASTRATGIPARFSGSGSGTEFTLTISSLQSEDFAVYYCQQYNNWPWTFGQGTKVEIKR
B14: Anti-IL-1RAP-C8-H1B-A8-Fab (Fab, V domains shown)
VH: B10 VH with G27E, K28G, L29S, N30Y, A31P
VL: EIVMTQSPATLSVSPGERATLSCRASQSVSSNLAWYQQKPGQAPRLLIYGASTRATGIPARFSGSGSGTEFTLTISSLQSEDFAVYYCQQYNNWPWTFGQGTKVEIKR
B15: Anti-IL-1RAP-C8-H1A-G1-Fab (Fab, V domains shown)
VH: B10 VH with K28A, L29S, N30R, Q35H
VL: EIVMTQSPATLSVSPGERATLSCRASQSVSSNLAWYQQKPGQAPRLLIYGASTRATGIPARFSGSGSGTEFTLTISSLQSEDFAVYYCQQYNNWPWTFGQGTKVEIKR
B16: Anti-IL-1RAP-C8-H1A-G11-Fab (Fab, V domains shown)
VH: B10 VH with K28R, L29F, N30H, A31Q
VL: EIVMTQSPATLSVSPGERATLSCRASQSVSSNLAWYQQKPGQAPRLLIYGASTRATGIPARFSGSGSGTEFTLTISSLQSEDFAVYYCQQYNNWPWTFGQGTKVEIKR
B17: Anti-IL-1RAP-C8-H1A-C8-Fab (Fab, V domains shown)
VH: B10 VH with K28L, L29F, N30S, A31D
VL: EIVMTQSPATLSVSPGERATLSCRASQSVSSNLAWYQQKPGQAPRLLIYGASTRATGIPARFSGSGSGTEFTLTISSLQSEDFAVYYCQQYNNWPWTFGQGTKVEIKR
B18: Anti-IL-1RAP-C8-H1A-D8-Fab (Fab, V domains shown)
VH: B10 VH with K28H, L29F, A31N
VL: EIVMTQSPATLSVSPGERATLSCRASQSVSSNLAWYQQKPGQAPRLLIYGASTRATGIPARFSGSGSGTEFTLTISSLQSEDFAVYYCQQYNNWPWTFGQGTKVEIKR
B19: Anti-IL-1RAP-UCP03-B6-Fab (Fab, V domains shown)
VH: QVQLVQSGAEVKKPGSSVKVSCKASGDPFSVYIIHWVRQAPGQGLEWMGYIIAQQGSASYAQKFQGRVTITADESTSTAYMELSSLRSEDTAVYYCARVPDPYSGHFDYWGQGTLVTVSS
VL: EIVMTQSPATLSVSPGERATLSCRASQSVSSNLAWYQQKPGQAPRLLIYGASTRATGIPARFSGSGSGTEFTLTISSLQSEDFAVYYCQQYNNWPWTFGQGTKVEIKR
B20: Anti-IL-1RAP-UCP02-A6-Fab (Fab, V domains shown)
VH: QVQLVQSGAEVKKPGSSVKVSCKASGGAFRIYAIHWVRQAPGQGLEWMGGILASGGGAVYAQKFQGRVTITADESTSTAYMELSSLRSEDTAVYYCARAKDIYGYGYGDIWGQGTLVTVSS
VL: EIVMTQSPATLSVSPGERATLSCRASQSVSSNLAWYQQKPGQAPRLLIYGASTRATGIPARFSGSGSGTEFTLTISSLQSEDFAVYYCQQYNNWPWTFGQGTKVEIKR

Legend:
[1] = target: T1, Recombinant cynomolgus monkey …; assay: SPR, biotinylated cyno IL-1RAP-avi-his captured, Fab as analyte, 1:1 fit
Protocol: (§1) Surface plasmon resonance (SPR) was used to measure the binding affinities of the Fab fragments for human, cynomolgus monkey and/or mouse IL-1RAP. Affinities were measured on a BIACORE™ T200 instrument (BIACORE™, GE […]®) at 25° C. and analyzed with the BIACORE™ T200 Evaluation Software (v3.1). Measurements were performed on Series S CM5 sensor chips (BIACORE™ T200, BIACORE™, GE […]®, catalog no. BR100530) coupled with anti-human IgG Fc (BIACORE™, GE […]®, catalog no. BR100839) using a commercial amine coupling kit (BIACORE™, GE […]®, catalog no. BR100050) or on Series S BiotinCAPture chips (BIACORE™, GE […]®, catalog no. 28920234). SPR measurements were performed with commercially available recombinant human IL-1RAP Fc fusion protein (Acrobiosystems, catalog no. ILP-H5256) and recombinant mouse IL-1RAP Fc fusion protein (Sino Biologicals, catalog no. 52657-M02H) or with biotinylated recombinant cynomolgus monkey IL-1RAP-avi-his protein produced in-house (SEQ ID NO. 2).
(§2) The affinities to human, cynomolgus monkey and mouse IL-1RAP were assessed by immobilizing IL-1RAP and using Fab fragments as analyte. Around 100 RU of human or mouse IL-1RAP Fc fusion protein were captured on fc2 of a Series S CM5 sensor chip coupled with anti-human IgG Fc and around 150 RU of biotinylated cynomolgus monkey IL-1RAP protein were captured on fc2 of a Series S BiotinCAPture chip. Fab fragments were injected in single cycle kinetic at different concentrations ranging from 7.8 to 500 nM, in HBS-EP+ buffer (BIACORE™, GE […]®, catalog no. BR100669) at a flow rate of 30 μl/min for 3 min on fc1 and fc2 (fc1 being used as reference). Dissociation was monitored for 5 min. After each cycle, the surface was regenerated with 60 μl of regeneration solution provided with anti-human IgG Fc capture kit (BIACORE™, GE […]®, catalog no. BR100839) or BiotinCAPture kit (BIACORE™, GE […]®, catalog no. 28920234) respectively. Experimental data were processed using the 1:1 Langmuir kinetic fitting model. Measurements included zero-concentration samples for referencing. Chi², U- and residual values were used to evaluate the quality of a fit between the experimental data and individual binding models.

[2] = target: T2, Recombinant mouse IL-1RAP Fc fusion …; assay: SPR, mouse IL-1RAP-Fc captured, Fab as analyte
Protocol: as §1, §2

[3] = target: T3, Recombinant human IL-1RAP Fc fusion …; assay: SPR, human IL-1RAP-Fc captured, Fab as analyte, 1:1 fit
Protocol: as §1, §2

[4] = target: T3, Recombinant human IL-1RAP Fc fusion …; assay: SPR, human IL-1RAP-Fc captured, Fab as analyte (0.08 to 50 nM)
Protocol: BR100669) at a flow rate of 30 μl/min for 3 min on fc1 and fc2 (fc1 being used as reference). Dissociation was monitored for 5 min. After each cycle, the surface was regenerated with 60 μl of regeneration solution provided with anti-human IgG Fc capture kit (BIACORE™, GE […]®, catalog no. BR100839) or BiotinCAPture kit (BIACORE™, GE […]®, catalog no. 28920234) respectively. Experimental data were processed using the 1:1 Langmuir kinetic fitting model. Measurements included zero-concentration samples for referencing. Chi², U- and residual values were used to evaluate the quality of a fit between the experimental data and individual binding models. […]

Binder	Kd [1] [nM]	binding result [2]	Kd [3] [nM]	Kd [4] [nM]
B1	464	no binding (tested: 7.8 to 500 nM Fab)	279	
B2	177	no binding (tested: 7.8 to 500 nM Fab)	137	
B3	761	no binding (tested: 7.8 to 500 nM Fab)	573	
B4	378	no binding (tested: 7.8 to 500 nM Fab)	420	
B5	220	no binding (tested: 7.8 to 500 nM Fab)	221	
B6	116	no binding (tested: 7.8 to 500 nM Fab)	73.5	
B7	486	no binding (tested: 7.8 to 500 nM Fab)	700	
B8	78.7	no binding (tested: 7.8 to 500 nM Fab)	98.1	
B9	589	no binding (tested: 7.8 to 500 nM Fab)	582	
B10				0.995
B11				0.373
B12				0.623
B13				0.832
B14				0.522
B15				0.424
B16				0.742
B17				1.24
B18				1.51
B19	756	no binding (tested: 7.8 to 500 nM Fab)	545	
B20	197	no binding (tested: 7.8 to 500 nM Fab)	223	
